Experimental data from patent US20190048340 (CRISPR Therapeutics AG, published 2019).

Biological target: Cpf1 (FnCpf1, FTN_1397) wild type (Francisella novicida U112, UniProt A0Q7Q2 SEQ:1-1300)
Test: EMSA; PAM YTN (TTA); 37 C
Conditions: tags: N-terminal 6xHis (pET-16b); label: 5'-32P; repeat hairpin

Sequence of Cpf1 (FnCpf1, FTN_1397) wild type (A0Q7Q2 whole entry): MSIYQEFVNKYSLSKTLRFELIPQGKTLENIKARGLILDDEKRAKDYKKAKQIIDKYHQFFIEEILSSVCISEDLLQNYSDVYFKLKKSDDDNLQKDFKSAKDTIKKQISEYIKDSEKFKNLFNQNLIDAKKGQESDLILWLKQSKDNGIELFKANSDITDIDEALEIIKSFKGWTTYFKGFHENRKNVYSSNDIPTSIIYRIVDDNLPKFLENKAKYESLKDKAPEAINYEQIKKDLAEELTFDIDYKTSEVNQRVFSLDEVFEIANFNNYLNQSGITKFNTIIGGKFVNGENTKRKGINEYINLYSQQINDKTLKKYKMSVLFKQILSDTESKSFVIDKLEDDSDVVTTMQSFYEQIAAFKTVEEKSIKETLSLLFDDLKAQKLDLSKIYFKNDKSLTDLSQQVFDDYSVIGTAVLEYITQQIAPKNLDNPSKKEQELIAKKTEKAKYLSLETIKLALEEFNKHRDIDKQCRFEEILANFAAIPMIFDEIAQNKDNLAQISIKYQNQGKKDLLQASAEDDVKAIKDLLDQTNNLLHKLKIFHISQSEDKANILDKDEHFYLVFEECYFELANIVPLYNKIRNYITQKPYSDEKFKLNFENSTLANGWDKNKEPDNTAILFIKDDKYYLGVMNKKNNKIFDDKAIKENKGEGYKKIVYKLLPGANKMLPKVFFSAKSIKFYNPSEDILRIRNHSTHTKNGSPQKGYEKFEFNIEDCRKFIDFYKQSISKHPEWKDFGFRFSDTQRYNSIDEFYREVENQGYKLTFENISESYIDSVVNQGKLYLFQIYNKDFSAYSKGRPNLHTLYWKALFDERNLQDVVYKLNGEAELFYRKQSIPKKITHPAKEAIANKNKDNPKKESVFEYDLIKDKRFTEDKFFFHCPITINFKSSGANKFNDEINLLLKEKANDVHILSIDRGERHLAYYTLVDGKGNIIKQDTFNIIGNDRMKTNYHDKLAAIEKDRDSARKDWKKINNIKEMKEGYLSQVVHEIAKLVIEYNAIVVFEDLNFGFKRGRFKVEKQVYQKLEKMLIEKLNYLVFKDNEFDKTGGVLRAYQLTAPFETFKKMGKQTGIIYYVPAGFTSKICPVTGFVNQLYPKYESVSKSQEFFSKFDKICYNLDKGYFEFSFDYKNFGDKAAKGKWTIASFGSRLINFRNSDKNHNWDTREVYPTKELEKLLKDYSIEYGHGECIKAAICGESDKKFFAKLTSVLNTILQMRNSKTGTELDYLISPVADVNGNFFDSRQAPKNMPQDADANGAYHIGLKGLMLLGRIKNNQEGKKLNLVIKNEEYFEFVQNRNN

B1: crRNA-sp5 repeat-spacer full-length (RNA 4); ref is antisense T7 transcription template ; Psp5 oligonucleotide duplex (ssRNA ; dsDNA)
RNA: GGGUCUAAGAACUUUAAAUAAUUUCUACUGUUGUAGAUAGAUUAAAAGGUAAUUCUAUCUUGUUGAG
DNA 1: AGCTGTAGCAAATATTAATCATATAGAAGAAAGCTCAGATCTCAACAAGATAGAATTACCTTTTAATCTTAAATTATTATATCCAGAAACTATTGATGGTAATTTACTTATC
DNA 2: AGCTGATAAGTAAATTACCATCAATAGTTTCTGGATATAATAATTTAAGATTAAAAGGTAATTCTATCTTGTTGAGATCTGAGCTTTCTTCTATATGATTAATATTTGCTAC
- Kd: 50 nM
